The values below come from article doi:10.1101/2025.03.16.643581.

The test addresses CDKL5-PBM peptide, WT (FITC-labeled) (human). The test can be described thus: fluorescence polarisation. For orientation: Fluorescence polarisation rises when a labelled molecule tumbles more slowly, as on binding a larger partner.
A word on the Kd: it is the constant that tells how readily two partners part at equilibrium. In turn, PSD95 PDZ3 domain (domain or fragment) registered a Kd of 13.3 µM.

In the case of PSD95 PDZ2 domain (domain or fragment), the Kd was found to be 40.8 µM.

In turn, PSD95 PDZ1 domain (domain or fragment) registered a Kd of 146 µM.
